Measured values published in patent US20150285810A1 (LUDWIG INSTITUTE FOR CANCER RESEARCH, published 2015).

T1: iASPP (1-240)-GST (human, UniProt Q8WUF5 1-240)
T1 construct: Expressed in bacteria, purified on glutathione beads; also called N-terminal iASPP; not shown: GST tag from pGEX vector (BamHI/EcoRI cloning)
T1 sequence: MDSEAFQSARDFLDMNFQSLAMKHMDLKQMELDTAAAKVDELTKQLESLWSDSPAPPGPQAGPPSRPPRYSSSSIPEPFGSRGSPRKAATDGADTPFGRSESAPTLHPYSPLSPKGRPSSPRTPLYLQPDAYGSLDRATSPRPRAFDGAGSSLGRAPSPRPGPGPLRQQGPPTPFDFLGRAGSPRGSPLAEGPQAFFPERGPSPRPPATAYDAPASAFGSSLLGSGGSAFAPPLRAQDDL

T2: iASPP (249-482)-GST (human, UniProt Q8WUF5 249-482)
T2 construct: not shown: GST tag from pGEX vector
T2 sequence: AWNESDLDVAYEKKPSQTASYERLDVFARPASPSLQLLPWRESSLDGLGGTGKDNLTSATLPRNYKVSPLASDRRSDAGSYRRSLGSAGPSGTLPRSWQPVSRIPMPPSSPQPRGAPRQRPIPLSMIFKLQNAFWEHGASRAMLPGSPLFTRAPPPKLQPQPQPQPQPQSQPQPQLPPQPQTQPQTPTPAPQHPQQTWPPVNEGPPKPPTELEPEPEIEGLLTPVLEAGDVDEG

B1: iASPP (625-828)-His (other)
chain: LNPLVLLLDAALTGELEVVQQAVKEMNDPSQPNEEGITALHNAICGANYSIVDFLITAGANVNSPDSHGWTPLHCAASCNDTVICMALVQHGAAIFATTLSDGATAFEKCDPYREGYADCATYLADVEQSMGLMNSGAVYALWDYSAEFGDELSFREGESVTVLRRDGPEETDWWWAALHGQEGYVPRNYFGLFPRVKPQRSKVHHHHHH
notes: Contains the ankyrin repeats and SH3 domain; FITC-labelled in the nuclear import assay; also called C-terminal iASPP

Key:
[1] = target: p53, transfected (co-transfected in H1299 cells; transfected in Saos-2 cells) (UniProt P04637 1-393); assay: cell-based or functional assay
Chain of p53, transfected (co-transfected in H1299 cells; transfected in Saos-2 cells) (P04637 whole entry): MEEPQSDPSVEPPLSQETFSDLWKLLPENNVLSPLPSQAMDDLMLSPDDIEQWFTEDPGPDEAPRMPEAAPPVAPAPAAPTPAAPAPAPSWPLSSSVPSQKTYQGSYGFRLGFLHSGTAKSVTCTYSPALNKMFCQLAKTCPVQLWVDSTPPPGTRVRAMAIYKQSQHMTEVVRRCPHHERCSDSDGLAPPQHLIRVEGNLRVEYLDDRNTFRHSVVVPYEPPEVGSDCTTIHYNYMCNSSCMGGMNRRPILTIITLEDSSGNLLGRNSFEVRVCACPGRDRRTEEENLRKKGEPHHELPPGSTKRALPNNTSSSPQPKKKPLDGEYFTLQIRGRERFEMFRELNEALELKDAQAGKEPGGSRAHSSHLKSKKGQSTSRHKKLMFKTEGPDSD

iASPP (1-240)-GST [2] = target: T1, iASPP (1-240)-GST; assay: glutathione bead pull-down of purified proteins, anti-His blot
iASPP (625-828)-His = target: B1; assay: as above
iASPP (249-482)-GST = target: T2, iASPP (249-482)-GST; assay: as above
iASPP (1-240)-GST [3] = target: T1, iASPP (1-240)-GST; assay: in vitro translated iASPP(625-828)-V5 pulled down with iASPP(1-240)-GST glutathione beads
iASPP (1-240)-GST [4] = target: T1, iASPP (1-240)-GST; assay: in vitro translated iASPP(625-828)-V5 mutant pulled down with iASPP(1-240)-GST glutathione beads

binding result (iASPP (1-240)-GST [4]) | Binder | other results
 | iASPP(S84D/S113D)-V5 (other, not shown: small tags and cut ends) MDSEAFQSARDFLDMNFQSLAMKHMDLKQMELDTAAAKVDELTKQLESLWSDSPAPPGPQAGPPSRPPRYSSSSIPEPFGSRGDPRKAATDGADTPFGRSESAPTLHPYSPLDPKGRPSSPRTPLYLQPDAYGSLDRATSPRPRAFDGAGSSLGRAPSPRPGPGPLRQQGPPTPFDFLGRAGSPRGSPLAEGPQAFFPERGPSPRPPATAYDAPASAFGSSLLGSGGSAFAPPLRAQDDLTLRRRPPKAWNESDLDVAYEKKPSQTASYERLDVFARPASPSLQLLPWRESSLDGLGGTGKDNLTSATLPRNYKVSPLASDRRSDAGSYRRSLGSAGPSGTLPRSWQPVSRIPMPPSSPQPRGAPRQRPIPLSMIFKLQNAFWEHGASRAMLPGSPLFTRAPPPKLQPQPQPQPQPQSQPQPQLPPQPQTQPQTPTPAPQHPQQTWPPVNEGPPKPPTELEPEPEIEGLLTPVLEAGDVDEGPVARPLSPTRLQPALPPEAQSVPELEEVARVLAEIPRPLKRRGSMEQAPAVALPPTHKKQYQQIISRLFHRHGGPGPGGPEPELSPITEGSEARAGPPAPAPPAPIPPPAPSQSSPPEQPQSMEMRSVLRKAGSPRKARRARLNPLVLLLDAALTGELEVVQQAVKEMNDPSQPNEEGITALHNAICGANYSIVDFLITAGANVNSPDSHGWTPLHCAASCNDTVICMALVQHGAAIFATTLSDGATAFEKCDPYREGYADCATYLADVEQSMGLMNSGAVYALWDYSAEFGDELSFREGESVTVLRRDGPEETDWWWAALHGQEGYVPRNYFGLFPRVKPQRSKV | inhibition of p53 mediated transcription (PIG3 reporter, Saos-2 cells), against wild type iASPP [1]: ~3 fold
 | ASPP2 (905-1128)-His (other, FITC-labelled in the nuclear import assay; also called C-terminus of ASPP2) RTNLRKTGSERIAHGMRVKFNPLALLLDSSLEGEFDLVQRIIYEVDDPSLPNDEGITALHNAVCAGHTEIVKFLVQFGVNVNAADSDGWTPLHCAASCNNVQVCKFLVESGAAVFAMTYSDMQTAADKCEEMEEGYTQCSQFLYGVQEKMGIMNKGVIYALWDYEPQNDDELPMKEGDCMTIIHREDEDEIEWWWARLNDKEGYVPRNLLGLYPRIKPRQRSLAHHHHHH | binding result (iASPP (1-240)-GST [2]): no binding (tested: 10 µg/ml each)
 | iASPP (1-240) S84D/S113D (other, also called iASPP phosphor-mimic mutant; not shown: GST tag from pGEX vector) MDSEAFQSARDFLDMNFQSLAMKHMDLKQMELDTAAAKVDELTKQLESLWSDSPAPPGPQAGPPSRPPRYSSSSIPEPFGSRGDPRKAATDGADTPFGRSESAPTLHPYSPLDPKGRPSSPRTPLYLQPDAYGSLDRATSPRPRAFDGAGSSLGRAPSPRPGPGPLRQQGPPTPFDFLGRAGSPRGSPLAEGPQAFFPERGPSPRPPATAYDAPASAFGSSLLGSGGSAFAPPLRAQDDL | binding result (iASPP (625-828)-His): no binding (tested: 10 µg/ml each)
 | B1 | binding result (iASPP (249-482)-GST): no binding (tested: 10 µg/ml each)
 | iASPP (625-828)-V5, wild type, in vitro translated (other, not shown: V5 tag) LNPLVLLLDAALTGELEVVQQAVKEMNDPSQPNEEGITALHNAICGANYSIVDFLITAGANVNSPDSHGWTPLHCAASCNDTVICMALVQHGAAIFATTLSDGATAFEKCDPYREGYADCATYLADVEQSMGLMNSGAVYALWDYSAEFGDELSFREGESVTVLRRDGPEETDWWWAALHGQEGYVPRNYFGLFPRVKPQRSKV | binding result (iASPP (1-240)-GST [3]): binds
binds | iASPP(625-828)/T722A/Y814A (other, In vitro translated; not shown: V5 tag) LNPLVLLLDAALTGELEVVQQAVKEMNDPSQPNEEGITALHNAICGANYSIVDFLITAGANVNSPDSHGWTPLHCAASCNDTVICMALVQHGAAIFAATLSDGATAFEKCDPYREGYADCATYLADVEQSMGLMNSGAVYALWDYSAEFGDELSFREGESVTVLRRDGPEETDWWWAALHGQEGYVPRNAFGLFPRVKPQRSKV | 
binds | iASPP(625-828)/L724A (other, In vitro translated; not shown: V5 tag) LNPLVLLLDAALTGELEVVQQAVKEMNDPSQPNEEGITALHNAICGANYSIVDFLITAGANVNSPDSHGWTPLHCAASCNDTVICMALVQHGAAIFATTASDGATAFEKCDPYREGYADCATYLADVEQSMGLMNSGAVYALWDYSAEFGDELSFREGESVTVLRRDGPEETDWWWAALHGQEGYVPRNYFGLFPRVKPQRSKV | 
binds | iASPP(625-828)/T722A (other, In vitro translated; not shown: V5 tag) LNPLVLLLDAALTGELEVVQQAVKEMNDPSQPNEEGITALHNAICGANYSIVDFLITAGANVNSPDSHGWTPLHCAASCNDTVICMALVQHGAAIFAATLSDGATAFEKCDPYREGYADCATYLADVEQSMGLMNSGAVYALWDYSAEFGDELSFREGESVTVLRRDGPEETDWWWAALHGQEGYVPRNYFGLFPRVKPQRSKV | 
binds | iASPP(625-828)/N813A (other, In vitro translated; not shown: V5 tag) LNPLVLLLDAALTGELEVVQQAVKEMNDPSQPNEEGITALHNAICGANYSIVDFLITAGANVNSPDSHGWTPLHCAASCNDTVICMALVQHGAAIFATTLSDGATAFEKCDPYREGYADCATYLADVEQSMGLMNSGAVYALWDYSAEFGDELSFREGESVTVLRRDGPEETDWWWAALHGQEGYVPRAYFGLFPRVKPQRSKV | 
binds | iASPP(625-828)/T722A/N813A (other, In vitro translated; not shown: V5 tag) LNPLVLLLDAALTGELEVVQQAVKEMNDPSQPNEEGITALHNAICGANYSIVDFLITAGANVNSPDSHGWTPLHCAASCNDTVICMALVQHGAAIFAATLSDGATAFEKCDPYREGYADCATYLADVEQSMGLMNSGAVYALWDYSAEFGDELSFREGESVTVLRRDGPEETDWWWAALHGQEGYVPRAYFGLFPRVKPQRSKV | 
binds | iASPP(625-828)/Y814A (other, In vitro translated; not shown: V5 tag) LNPLVLLLDAALTGELEVVQQAVKEMNDPSQPNEEGITALHNAICGANYSIVDFLITAGANVNSPDSHGWTPLHCAASCNDTVICMALVQHGAAIFATTLSDGATAFEKCDPYREGYADCATYLADVEQSMGLMNSGAVYALWDYSAEFGDELSFREGESVTVLRRDGPEETDWWWAALHGQEGYVPRNAFGLFPRVKPQRSKV | 
